Results as given in article PMC3982999.

Biological target: GST-tetra-ubiquitin (4×UB) (UniProt P0CG48)
Assay: LUMIER

fold weaker binding than to 2×UB: 4 fold
B1: Renilla luciferase fused to the full-length WT spartin (natural protein)
chain: MEQEPQNGEPAEIKIIREAYKKAFLFVNKGLNTDELGQKEEAKNYYKQGIGHLLRGISISSKESEHTGPGWESARQMQQKMKETLQNVRTRLEILEKGLATSLQNDLQEVPKLYPEFPPKDMCEKLPEPQSFSSAPQHAEVNGNTSTPSAGAVAAPASLSLPSQSCPAEAPPAYTPQAAEGHYTVSYGTDSGEFSSVGEEFYRNHSQPPPLETLGLDADELILIPNGVQIFFVNPAGEVSAPSYPGYLRIVRFLDNSLDTVLNRPPGFLQVCDWLYPLVPDRSPVLKCTAGAYMFPDTMLQAAGCFVGVVLSSELPEDDRELFEDLLRQMSDLRLQANWNRAEEENEFQIPGRTRPSSDQLKEASGTDVKQLDQGNKDVRHKGKRGKRAKDTSSEEVNLSHIVPCEPVPEEKPKELPEWSEKVAHNILSGASWVSWGLVKGAEITGKAIQKGASKLRERIQPEEKPVEVSPAVTKGLYIAKQATGGAAKVSQFLVDGVCTVANCVGKELAPHVKKHGSKLVPESLKKDKDGKSPLDGAMVVAASSVQGFSTVWQGLECAAKCIVNNVSAETVQTVRYKYGYNAGEATHHAVDSAVNVGVTAYNINNIGIKAMVKKTATQTGHTLLEDYQIVDNSQRENQEGAANVNVRGEKDEQTKEVKEAKKKDK
